Assay results taken from paper PMC7033311, “The Eaf3 chromodomain acts as a pH sensor for gene expression by altering its binding affinity for histone methylated-lysine residues” (Bioscience Reports, 2020).
Where a chain is given by its changes, count along the chain named. Where no end group is shown, it is not given here. [ ]: non-standard residue; d: D form. The star is where a group is joined. MTSL = spin label, CC1(C)C=C(CS*)C(C)(C)N1[O]; Lys(Me3) = C[N+](C)(C)CCCC[C@H](N)C(=O)O

What was measured:
Settings in all cases: both partners purified
[1] = molecular target: T1, Eaf3 chromodomain (Eaf3 CD, residues 1-120), wild type (S. cerevisiae, UniProt Q12432 1-120); assay: NMR titration; 0.1 mM 15N-labelled WT or mutant Eaf3 CD titrated with unlabelled histone H3 peptide up to 1:88; 10 mM potassium phosphate pH 6.8, 20 mM NaCl, 5 mM DTT, 25°C; Kd by nonlinear fit of chemical shift change
T1 construct: Eaf3 chromodomain (CD), budding yeast (S. cerevisiae), residues 1-120; 15N-labelled for the NMR experiments; expressed from pET15b; also called WT Eaf3 CD; source: E. coli BL21(DE3)pLysS, purified (Ni-NTA, thrombin, Ni-NTA flow-through, Superdex75)
T1 sequence (looked up): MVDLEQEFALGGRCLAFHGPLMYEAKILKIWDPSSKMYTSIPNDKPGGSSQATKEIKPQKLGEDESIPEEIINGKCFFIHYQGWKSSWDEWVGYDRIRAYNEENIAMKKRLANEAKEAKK

[2] = molecular target: T2, Eaf3 CD (residues 1-120) W84Y (S. cerevisiae, UniProt Q12432 1-120, W84Y); assay: as above
T2 construct: Eaf3 chromodomain (CD), budding yeast (S. cerevisiae), residues 1-120, W84Y; 15N-labelled for the NMR experiments; source: E. coli BL21(DE3)pLysS, purified (Ni-NTA, thrombin, Ni-NTA flow-through, Superdex75)
T2 sequence (looked up): T1 sequence (looked up) with W84Y

[3] = molecular target: T3, Eaf3 CD (residues 1-120) Q82A (S. cerevisiae, UniProt Q12432 1-120, Q82A); assay: as above
T3 construct: Eaf3 chromodomain (CD), budding yeast (S. cerevisiae), residues 1-120, Q82A; 15N-labelled for the NMR experiments; source: E. coli BL21(DE3)pLysS, purified (Ni-NTA, thrombin, Ni-NTA flow-through, Superdex75)
T3 sequence (looked up): T1 sequence (looked up) with Q82A

[4] = molecular target: T4, Eaf3 CD (residues 1-120) G19A (S. cerevisiae, UniProt Q12432 1-120, G19A); assay: as above
T4 construct: Eaf3 chromodomain (CD), budding yeast (S. cerevisiae), residues 1-120, G19A; 15N-labelled for the NMR experiments; source: E. coli BL21(DE3)pLysS, purified (Ni-NTA, thrombin, Ni-NTA flow-through, Superdex75)
T4 sequence (looked up): T1 sequence (looked up) with G19A

[5] = molecular target: T5, Eaf3 CD (residues 1-120) H18D (S. cerevisiae, UniProt Q12432 1-120, H18D); assay: paramagnetic relaxation enhancement (NMR); MTSL-H3K36me3 peptide added to 0.3 mM 15N-labelled Eaf3 CD at 1:1; 10 mM potassium phosphate pH 6.8, 20 mM NaCl; paramagnetic against ascorbate-reduced sample
T5 construct: Eaf3 chromodomain (CD), budding yeast (S. cerevisiae), residues 1-120, H18D; 15N-labelled for the NMR experiments; also called H18D Eaf3 CD; source: E. coli BL21(DE3)pLysS, purified (Ni-NTA, thrombin, Ni-NTA flow-through, Superdex75)
T5 sequence (looked up): T1 sequence (looked up) with H18D

[6] = molecular target: T1, Eaf3 chromodomain (Eaf3 CD, residues …); assay: as above

**Q.** How did the Kd [1] turn out when ART[Lys(Me3)]QTARKSTGGKAPRY [histone H3 peptide H3K4me3, titration peptide] was run?
**A.** 2900 ± 10 µM

**Q.** And the Kd [2]?
**A.** 1590 ± 280 µM

**Q.** What about the Kd [3] of the same binder?
**A.** 2240 ± 280 µM

**Q.** And the Kd [4]?
**A.** 800 ± 70 µM

B1: MTSL spin-labelled H3K36me3 peptide (residues 32-41) with a Gly33Cys substitution (peptide, UniProt P61830 33-42, looked up)
peptide: TC(MTSL)GVK(me3)KPHRY
notes: histone H3 residues 32-41 with Gly33Cys; also called MTSL-H3K36me3 peptide; paramagnetically labeled H3K36me3 peptide; source: synthetic peptide (SIGMA Genosys), labelled with MTSL
**Q.** Which results are given for B1?
**A.** binding result [5]: binds; binding result [6]: binds
